# Source: US20100129369A1 (Eli Lilly, published 2010)
# What was measured:
# Assay in all cases: ELISA, coated ECD-Fc, antibody 0.060 ng/mL
# RON-ECD-Fc = target: T1, RON-ECD-Fc (human, UniProt Q04912 25-957)
# T1 construct: extracellular domain; Bought reagent; not shown: Fc part of the bought fusion
# T1 sequence (looked up): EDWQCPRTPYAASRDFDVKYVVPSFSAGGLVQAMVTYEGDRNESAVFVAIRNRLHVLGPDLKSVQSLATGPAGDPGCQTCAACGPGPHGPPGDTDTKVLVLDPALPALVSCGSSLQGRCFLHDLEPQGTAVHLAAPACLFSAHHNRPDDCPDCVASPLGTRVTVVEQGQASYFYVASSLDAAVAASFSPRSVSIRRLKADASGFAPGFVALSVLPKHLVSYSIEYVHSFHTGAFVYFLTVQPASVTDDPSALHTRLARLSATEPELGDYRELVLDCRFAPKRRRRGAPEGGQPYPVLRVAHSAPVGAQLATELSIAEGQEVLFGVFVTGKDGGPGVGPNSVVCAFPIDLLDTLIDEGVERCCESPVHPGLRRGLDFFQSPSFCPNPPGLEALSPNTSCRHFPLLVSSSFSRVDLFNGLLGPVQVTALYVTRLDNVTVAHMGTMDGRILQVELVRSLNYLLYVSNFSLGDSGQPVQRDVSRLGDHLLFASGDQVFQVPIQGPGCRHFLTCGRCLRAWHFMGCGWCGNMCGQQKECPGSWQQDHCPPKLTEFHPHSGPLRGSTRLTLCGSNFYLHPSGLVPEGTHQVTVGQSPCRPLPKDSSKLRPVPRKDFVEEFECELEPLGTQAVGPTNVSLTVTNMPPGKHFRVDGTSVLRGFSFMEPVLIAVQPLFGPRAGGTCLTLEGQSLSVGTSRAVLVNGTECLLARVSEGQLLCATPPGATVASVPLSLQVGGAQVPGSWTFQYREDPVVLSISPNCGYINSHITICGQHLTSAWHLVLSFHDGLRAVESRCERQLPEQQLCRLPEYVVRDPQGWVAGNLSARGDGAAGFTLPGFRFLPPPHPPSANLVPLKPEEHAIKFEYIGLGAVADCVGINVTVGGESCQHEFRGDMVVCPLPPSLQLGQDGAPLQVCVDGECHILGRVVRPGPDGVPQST
# Protocol: (§1) Wells of 96-well EIA/RIA high binding plates (Costar, #2592) are coated with 100 μL of 1 μg/mL human c-Met extracellular domain (ECD)-Fc-Flis fusion (SEQ ID NO:72), RON-ECD-Fc (R&D Systems, #1947-MS), or PlexinA2-ECD-Fc (Abnova, Taipei, Taiwan #H00005362-P01) in coating buffer (BioFX Labs, # COAT-1000-01) overnight at 4° C. […] After the plates are washed, 100 μL/well of substrate solution (BioFx, #TMBW-1000-01) are added and the plates are incubated for 10 min. at room temperature. 100 μL/well of stop solution (BioFx, # LSTP-1000-01) are added to stop the reaction. The colorimetric signals are developed and read at 450 nm using a SpectraMax 190 plate reader (Molecular Devices, Sunnyvale, Calif.). c-Met antibody binding to c-Met, RON and PlexinA2 ECDs is proportional to color signal production.
# PlexinA2-ECD-Fc = target: T2, PlexinA2-ECD-Fc (human, UniProt O75051 35-1237)
# T2 construct: extracellular domain; Bought reagent
# T2 sequence (looked up): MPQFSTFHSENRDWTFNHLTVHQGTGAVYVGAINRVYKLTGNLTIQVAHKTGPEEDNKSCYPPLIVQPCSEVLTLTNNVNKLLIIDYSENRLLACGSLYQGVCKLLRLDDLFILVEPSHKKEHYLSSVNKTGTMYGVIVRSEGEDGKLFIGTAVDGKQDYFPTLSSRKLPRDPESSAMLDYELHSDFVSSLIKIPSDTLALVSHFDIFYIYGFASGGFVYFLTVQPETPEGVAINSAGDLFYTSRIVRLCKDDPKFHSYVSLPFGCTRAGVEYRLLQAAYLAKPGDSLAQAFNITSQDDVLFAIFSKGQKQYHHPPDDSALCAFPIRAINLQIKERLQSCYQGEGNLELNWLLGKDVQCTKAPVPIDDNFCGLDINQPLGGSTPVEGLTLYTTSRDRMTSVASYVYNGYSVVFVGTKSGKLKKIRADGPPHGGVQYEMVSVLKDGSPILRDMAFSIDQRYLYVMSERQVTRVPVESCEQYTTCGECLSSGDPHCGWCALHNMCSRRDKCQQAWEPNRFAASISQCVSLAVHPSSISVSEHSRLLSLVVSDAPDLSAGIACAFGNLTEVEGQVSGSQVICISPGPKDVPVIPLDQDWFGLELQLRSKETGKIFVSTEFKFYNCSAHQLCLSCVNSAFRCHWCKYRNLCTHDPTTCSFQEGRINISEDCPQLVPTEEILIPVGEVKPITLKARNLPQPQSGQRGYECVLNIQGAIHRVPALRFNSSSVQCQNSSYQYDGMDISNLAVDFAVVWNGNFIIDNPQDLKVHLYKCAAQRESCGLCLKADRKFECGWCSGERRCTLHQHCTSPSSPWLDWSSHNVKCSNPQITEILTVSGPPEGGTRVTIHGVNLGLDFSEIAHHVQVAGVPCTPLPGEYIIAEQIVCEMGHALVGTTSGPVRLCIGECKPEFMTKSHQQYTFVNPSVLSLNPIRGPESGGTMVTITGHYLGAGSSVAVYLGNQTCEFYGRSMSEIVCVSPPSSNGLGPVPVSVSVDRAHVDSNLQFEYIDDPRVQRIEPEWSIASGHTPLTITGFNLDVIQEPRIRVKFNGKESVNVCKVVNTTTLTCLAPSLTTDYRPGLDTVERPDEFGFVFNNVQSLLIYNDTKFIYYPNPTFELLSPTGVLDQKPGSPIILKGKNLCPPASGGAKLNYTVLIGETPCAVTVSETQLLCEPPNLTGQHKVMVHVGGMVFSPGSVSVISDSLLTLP
# Protocol: as §1
# Human c-Met-Flis-Fc ECD = target: T3, Human c-Met-Flis-Fc ECD (human)
# T3 construct: also called human c-Met extracellular domain (ECD)-Fc-Flis fusion; Human cMet-ECD-Fc-Flis
# T3 sequence (chain, as listed by the source limits assumed): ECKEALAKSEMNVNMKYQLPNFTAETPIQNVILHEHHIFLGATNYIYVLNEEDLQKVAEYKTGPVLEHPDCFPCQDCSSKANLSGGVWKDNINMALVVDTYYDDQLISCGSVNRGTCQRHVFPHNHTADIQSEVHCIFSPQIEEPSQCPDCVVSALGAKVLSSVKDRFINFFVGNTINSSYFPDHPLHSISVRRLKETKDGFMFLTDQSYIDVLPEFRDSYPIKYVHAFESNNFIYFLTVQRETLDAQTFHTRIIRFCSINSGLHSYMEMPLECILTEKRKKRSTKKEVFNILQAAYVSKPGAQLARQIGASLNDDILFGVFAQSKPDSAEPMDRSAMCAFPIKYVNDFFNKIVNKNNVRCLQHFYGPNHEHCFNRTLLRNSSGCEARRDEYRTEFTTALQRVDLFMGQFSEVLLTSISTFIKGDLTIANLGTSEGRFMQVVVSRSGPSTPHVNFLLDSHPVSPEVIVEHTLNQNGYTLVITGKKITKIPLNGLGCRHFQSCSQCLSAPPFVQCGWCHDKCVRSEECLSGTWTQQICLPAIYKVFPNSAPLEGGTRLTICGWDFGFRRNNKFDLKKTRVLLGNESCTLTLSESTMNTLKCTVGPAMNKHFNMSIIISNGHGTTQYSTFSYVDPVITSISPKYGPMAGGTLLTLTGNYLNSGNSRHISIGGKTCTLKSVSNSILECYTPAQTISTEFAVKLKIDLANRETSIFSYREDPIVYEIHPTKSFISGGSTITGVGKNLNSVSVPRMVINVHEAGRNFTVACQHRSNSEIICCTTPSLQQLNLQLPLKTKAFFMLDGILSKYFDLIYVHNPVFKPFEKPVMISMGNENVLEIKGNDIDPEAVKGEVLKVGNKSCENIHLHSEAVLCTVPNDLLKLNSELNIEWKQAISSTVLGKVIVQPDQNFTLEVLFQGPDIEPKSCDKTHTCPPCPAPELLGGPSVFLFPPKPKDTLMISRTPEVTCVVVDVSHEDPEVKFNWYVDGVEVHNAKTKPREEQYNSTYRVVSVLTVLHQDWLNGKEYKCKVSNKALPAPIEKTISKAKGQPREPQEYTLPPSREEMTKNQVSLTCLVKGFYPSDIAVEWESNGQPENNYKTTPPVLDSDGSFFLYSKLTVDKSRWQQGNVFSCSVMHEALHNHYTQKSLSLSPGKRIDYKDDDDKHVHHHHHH
# Protocol: as §1
binder,measurement,setting,value
"C8-6 (antibody, human IgG2, kappa, V domains shown, Called IgG4, kappa; also called Mab C8-6) VH: QVQLVQSGAEVKKPGASVKVSCKASGYTFTDYYMHWVRQAPGQGLEWMGRVNPNRGGTTYNQKFEGRVTMTTDTSTSTAYMELRSLRSDDTAVYYCARTNWLDYWGQGTTVTVSS VL: DIQMTQSPSSLSASVGDRVTITCSVSSSVSSIYLHWYQQKPGKAPKLLIYSTSNLASGVPSRFSGSGSGTDFTLTISSLQPEDFATYYCIQYSGYPLTFGGGTKVEIKR",Average A450 nm,RON-ECD-Fc,0.087 A450 nm
same,Average A450 nm,PlexinA2-ECD-Fc,0.096 A450 nm
same,Average A450 nm,Human c-Met-Flis-Fc ECD,0.551 A450 nm
